Assay results taken from US20140087995A1 (published 2014).
Numbered stars: 1 amine (or outer) side, 2 acyl side, 3 side chain; on linkers, the order of the positions; unused ones are H or OH. Bridge positions count the residues as written; N and C are the ends. Side chains are listed from the residue outwards. Ends that are not written are not given here. * marks the point of attachment. C20 diacid = O=C(O)CCCCCCCCCCCCCCCCCCC(=O)*; γGlu = O=C(O)[C@H](CCC(=O)[*:2])N[*:1]; AEEA = NCCOCCOCC(=O)O

T1: human amylin receptor (amylin 3(a) receptor: human calcitonin receptor plus RAMP-3) (human, UniProt P30988 25-474; O60896 24-148, limits assumed)
T1 sequence (looked up) 1: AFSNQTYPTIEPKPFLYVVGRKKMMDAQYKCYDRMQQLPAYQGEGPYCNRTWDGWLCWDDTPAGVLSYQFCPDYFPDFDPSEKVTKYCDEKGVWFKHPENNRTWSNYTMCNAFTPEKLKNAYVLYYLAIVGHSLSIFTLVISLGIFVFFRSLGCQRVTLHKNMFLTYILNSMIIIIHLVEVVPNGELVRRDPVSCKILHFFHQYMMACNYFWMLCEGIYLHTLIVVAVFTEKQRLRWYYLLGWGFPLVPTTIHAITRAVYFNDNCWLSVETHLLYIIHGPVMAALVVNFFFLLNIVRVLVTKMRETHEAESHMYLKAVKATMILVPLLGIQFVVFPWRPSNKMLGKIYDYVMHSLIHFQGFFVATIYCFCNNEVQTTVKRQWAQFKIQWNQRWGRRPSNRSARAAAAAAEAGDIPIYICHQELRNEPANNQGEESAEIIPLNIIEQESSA
T1 sequence (looked up) 2: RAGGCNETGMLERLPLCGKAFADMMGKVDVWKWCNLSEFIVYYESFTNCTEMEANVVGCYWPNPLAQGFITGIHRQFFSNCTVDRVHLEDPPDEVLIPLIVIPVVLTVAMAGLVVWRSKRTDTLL

T2: human calcitonin receptor (human, UniProt P30988 25-474)
T2 sequence (looked up): T1 sequence (looked up) 1

B1: N^α1-[(4S)-4-carboxy-4-(19-carboxynonadecanoylamino)butanoyl]-[Glu14,Arg17,Pro21,Pro27,Pro31]-h-amylin (peptide)
peptide: {C20 diacid-γGlu}-KCNTATCATQRLAEFLRHSSPNFGAIPSSTPVGSNTY-NH2
modifications: disulfide 2-7
SMILES: CC[C@H](C)[C@H](NC(=O)[C@H](C)NC(=O)CNC(=O)[C@H](Cc1ccccc1)NC(=O)[C@H](CC(N)=O)NC(=O)[C@@H]1CCCN1C(=O)[C@H](CO)NC(=O)[C@H](CO)NC(=O)[C@H](Cc1c[nH]cn1)NC(=O)[C@H](CCCNC(=N)N)NC(=O)[C@H](CC(C)C)NC(=O)[C@H](Cc1ccccc1)NC(=O)[C@H](CCC(=O)O)NC(=O)[C@H](C)NC(=O)[C@H](CC(C)C)NC(=O)[C@H](CCCNC(=N)N)NC(=O)[C@H](CCC(N)=O)NC(=O)[C@@H](NC(=O)[C@H](C)NC(=O)[C@@H]1CSSC[C@H](NC(=O)[C@H](CCCCN)NC(=O)CC[C@H](NC(=O)CCCCCCCCCCCCCCCCCCC(=O)O)C(=O)O)C(=O)N[C@@H](CC(N)=O)C(=O)N[C@@H]([C@@H](C)O)C(=O)N[C@@H](C)C(=O)N[C@@H]([C@@H](C)O)C(=O)N1)[C@@H](C)O)C(=O)N1CCC[C@H]1C(=O)N[C@@H](CO)C(=O)N[C@@H](CO)C(=O)N[C@H](C(=O)N1CCC[C@H]1C(=O)N[C@H](C(=O)NCC(=O)N[C@@H](CO)C(=O)N[C@@H](CC(N)=O)C(=O)N[C@H](C(=O)N[C@@H](Cc1ccc(O)cc1)C(N)=O)[C@@H](C)O)C(C)C)[C@@H](C)O
notes: also called compound 31
B2: N^ε1-[2-[2-[2-[[(4S)-4-carboxy-4-(19-carboxynonadecanoylamino)butanoyl]amino]ethoxy]ethoxy]acetyl]-[Arg17,Pro21,Pro27]-h-amylin (peptide)
peptide: K([AEEA-γGlu-C20 diacid])CNTATCATQRLANFLRHSSPNFGAIPSSTNVGSNTY-NH2
modifications: disulfide 2-7; N-terminus assumed
SMILES: CC[C@H](C)[C@H](NC(=O)[C@H](C)NC(=O)CNC(=O)[C@H](Cc1ccccc1)NC(=O)[C@H](CC(N)=O)NC(=O)[C@@H]1CCCN1C(=O)[C@H](CO)NC(=O)[C@H](CO)NC(=O)[C@H](Cc1c[nH]cn1)NC(=O)[C@H](CCCNC(=N)N)NC(=O)[C@H](CC(C)C)NC(=O)[C@H](Cc1ccccc1)NC(=O)[C@H](CC(N)=O)NC(=O)[C@H](C)NC(=O)[C@H](CC(C)C)NC(=O)[C@H](CCCNC(=N)N)NC(=O)[C@H](CCC(N)=O)NC(=O)[C@@H](NC(=O)[C@H](C)NC(=O)[C@@H]1CSSC[C@H](NC(=O)[C@@H](N)CCCCNC(=O)COCCOCCNC(=O)CC[C@H](NC(=O)CCCCCCCCCCCCCCCCCCC(=O)O)C(=O)O)C(=O)N[C@@H](CC(N)=O)C(=O)N[C@@H]([C@@H](C)O)C(=O)N[C@@H](C)C(=O)N[C@@H]([C@@H](C)O)C(=O)N1)[C@@H](C)O)C(=O)N1CCC[C@H]1C(=O)N[C@@H](CO)C(=O)N[C@@H](CO)C(=O)N[C@H](C(=O)N[C@@H](CC(N)=O)C(=O)N[C@H](C(=O)NCC(=O)N[C@@H](CO)C(=O)N[C@@H](CC(N)=O)C(=O)N[C@H](C(=O)N[C@@H](Cc1ccc(O)cc1)C(N)=O)[C@@H](C)O)C(C)C)[C@@H](C)O
notes: also called compound 41
B3: N^α1-[(4S)-4-carboxy-4-(19-carboxynonadecanoylamino)butanoyl]-[His14,Arg17,Pro21,Pro27,Glu35]-h-amylin (peptide)
peptide: {C20 diacid-γGlu}-KCNTATCATQRLAHFLRHSSPNFGAIPSSTNVGSETY-NH2
modifications: disulfide 2-7
SMILES: CC[C@H](C)[C@H](NC(=O)[C@H](C)NC(=O)CNC(=O)[C@H](Cc1ccccc1)NC(=O)[C@H](CC(N)=O)NC(=O)[C@@H]1CCCN1C(=O)[C@H](CO)NC(=O)[C@H](CO)NC(=O)[C@H](Cc1c[nH]cn1)NC(=O)[C@H](CCCNC(=N)N)NC(=O)[C@H](CC(C)C)NC(=O)[C@H](Cc1ccccc1)NC(=O)[C@H](Cc1c[nH]cn1)NC(=O)[C@H](C)NC(=O)[C@H](CC(C)C)NC(=O)[C@H](CCCNC(=N)N)NC(=O)[C@H](CCC(N)=O)NC(=O)[C@@H](NC(=O)[C@H](C)NC(=O)[C@@H]1CSSC[C@H](NC(=O)[C@H](CCCCN)NC(=O)CC[C@H](NC(=O)CCCCCCCCCCCCCCCCCCC(=O)O)C(=O)O)C(=O)N[C@@H](CC(N)=O)C(=O)N[C@@H]([C@@H](C)O)C(=O)N[C@@H](C)C(=O)N[C@@H]([C@@H](C)O)C(=O)N1)[C@@H](C)O)C(=O)N1CCC[C@H]1C(=O)N[C@@H](CO)C(=O)N[C@@H](CO)C(=O)N[C@H](C(=O)N[C@@H](CC(N)=O)C(=O)N[C@H](C(=O)NCC(=O)N[C@@H](CO)C(=O)N[C@@H](CCC(=O)O)C(=O)N[C@H](C(=O)N[C@@H](Cc1ccc(O)cc1)C(N)=O)[C@@H](C)O)C(C)C)[C@@H](C)O
notes: also called compound 30
B4: N^ε1-[2-[2-[2-(19-carboxynonadecanoylamino)ethoxy]ethoxy]acetyl]-[Arg17,Pro21,Pro27]-h-amylin (peptide)
peptide: K([AEEA-C20 diacid])CNTATCATQRLANFLRHSSPNFGAIPSSTNVGSNTY-NH2
modifications: disulfide 2-7; N-terminus assumed
SMILES: CC[C@H](C)[C@H](NC(=O)[C@H](C)NC(=O)CNC(=O)[C@H](Cc1ccccc1)NC(=O)[C@H](CC(N)=O)NC(=O)[C@@H]1CCCN1C(=O)[C@H](CO)NC(=O)[C@H](CO)NC(=O)[C@H](Cc1c[nH]cn1)NC(=O)[C@H](CCCNC(=N)N)NC(=O)[C@H](CC(C)C)NC(=O)[C@H](Cc1ccccc1)NC(=O)[C@H](CC(N)=O)NC(=O)[C@H](C)NC(=O)[C@H](CC(C)C)NC(=O)[C@H](CCCNC(=N)N)NC(=O)[C@H](CCC(N)=O)NC(=O)[C@@H](NC(=O)[C@H](C)NC(=O)[C@@H]1CSSC[C@H](NC(=O)[C@@H](N)CCCCNC(=O)COCCOCCNC(=O)CCCCCCCCCCCCCCCCCCC(=O)O)C(=O)N[C@@H](CC(N)=O)C(=O)N[C@@H]([C@@H](C)O)C(=O)N[C@@H](C)C(=O)N[C@@H]([C@@H](C)O)C(=O)N1)[C@@H](C)O)C(=O)N1CCC[C@H]1C(=O)N[C@@H](CO)C(=O)N[C@@H](CO)C(=O)N[C@H](C(=O)N[C@@H](CC(N)=O)C(=O)N[C@H](C(=O)NCC(=O)N[C@@H](CO)C(=O)N[C@@H](CC(N)=O)C(=O)N[C@H](C(=O)N[C@@H](Cc1ccc(O)cc1)C(N)=O)[C@@H](C)O)C(C)C)[C@@H](C)O
notes: also called compound 43
B5: N^ε1-[2-[2-[2-[[2-[2-[2-[[(4S)-4-carboxy-4-(19-carboxynonadecanoylamino)butanoyl]amino]ethoxy]ethoxy]acetyl]amino]ethoxy]ethoxy]acetyl]-[Arg17,Pro21,Pro27,Glu35 … (peptide)
peptide: K([AEEA-AEEA-γGlu-C20 diacid])CNTATCATQRLANFLRHSSPNFGAIPSSTNVGSETY-NH2
modifications: disulfide 2-7; N-terminus assumed
SMILES: CC[C@H](C)[C@H](NC(=O)[C@H](C)NC(=O)CNC(=O)[C@H](Cc1ccccc1)NC(=O)[C@H](CC(N)=O)NC(=O)[C@@H]1CCCN1C(=O)[C@H](CO)NC(=O)[C@H](CO)NC(=O)[C@H](Cc1c[nH]cn1)NC(=O)[C@H](CCCNC(=N)N)NC(=O)[C@H](CC(C)C)NC(=O)[C@H](Cc1ccccc1)NC(=O)[C@H](CC(N)=O)NC(=O)[C@H](C)NC(=O)[C@H](CC(C)C)NC(=O)[C@H](CCCNC(=N)N)NC(=O)[C@H](CCC(N)=O)NC(=O)[C@@H](NC(=O)[C@H](C)NC(=O)[C@@H]1CSSC[C@H](NC(=O)[C@@H](N)CCCCNC(=O)COCCOCCNC(=O)COCCOCCNC(=O)CC[C@H](NC(=O)CCCCCCCCCCCCCCCCCCC(=O)O)C(=O)O)C(=O)N[C@@H](CC(N)=O)C(=O)N[C@@H]([C@@H](C)O)C(=O)N[C@@H](C)C(=O)N[C@@H]([C@@H](C)O)C(=O)N1)[C@@H](C)O)C(=O)N1CCC[C@H]1C(=O)N[C@@H](CO)C(=O)N[C@@H](CO)C(=O)N[C@H](C(=O)N[C@@H](CC(N)=O)C(=O)N[C@H](C(=O)NCC(=O)N[C@@H](CO)C(=O)N[C@@H](CCC(=O)O)C(=O)N[C@H](C(=O)N[C@@H](Cc1ccc(O)cc1)C(N)=O)[C@@H](C)O)C(C)C)[C@@H](C)O
notes: also called compound 25
B6: N^ε1-[2-[2-[2-[[(4S)-4-carboxy-4-(19-carboxynonadecanoylamino)butanoyl]amino]ethoxy]ethoxy]acetyl]-[Arg17,Pro21,Pro27,Glu35]-h-amylin (peptide)
peptide: K([AEEA-γGlu-C20 diacid])CNTATCATQRLANFLRHSSPNFGAIPSSTNVGSETY-NH2
modifications: disulfide 2-7; N-terminus assumed
SMILES: CC[C@H](C)[C@H](NC(=O)[C@H](C)NC(=O)CNC(=O)[C@H](Cc1ccccc1)NC(=O)[C@H](CC(N)=O)NC(=O)[C@@H]1CCCN1C(=O)[C@H](CO)NC(=O)[C@H](CO)NC(=O)[C@H](Cc1c[nH]cn1)NC(=O)[C@H](CCCNC(=N)N)NC(=O)[C@H](CC(C)C)NC(=O)[C@H](Cc1ccccc1)NC(=O)[C@H](CC(N)=O)NC(=O)[C@H](C)NC(=O)[C@H](CC(C)C)NC(=O)[C@H](CCCNC(=N)N)NC(=O)[C@H](CCC(N)=O)NC(=O)[C@@H](NC(=O)[C@H](C)NC(=O)[C@@H]1CSSC[C@H](NC(=O)[C@@H](N)CCCCNC(=O)COCCOCCNC(=O)CC[C@H](NC(=O)CCCCCCCCCCCCCCCCCCC(=O)O)C(=O)O)C(=O)N[C@@H](CC(N)=O)C(=O)N[C@@H]([C@@H](C)O)C(=O)N[C@@H](C)C(=O)N[C@@H]([C@@H](C)O)C(=O)N1)[C@@H](C)O)C(=O)N1CCC[C@H]1C(=O)N[C@@H](CO)C(=O)N[C@@H](CO)C(=O)N[C@H](C(=O)N[C@@H](CC(N)=O)C(=O)N[C@H](C(=O)NCC(=O)N[C@@H](CO)C(=O)N[C@@H](CCC(=O)O)C(=O)N[C@H](C(=O)N[C@@H](Cc1ccc(O)cc1)C(N)=O)[C@@H](C)O)C(C)C)[C@@H](C)O
notes: also called compound 26

Target: T1, human amylin receptor (amylin 3(a) …)
Experiment: cell-based or functional assay

| Binder | hAmylin-R funct. EC50 |
| --- | --- |
| B1 | 0.112 nM |
| B2 | 0.26 nM |
| B3 | 0.134 nM |
| B4 | 0.141 nM |
| B5 | 0.217 nM |
| B6 | 0.212 nM |

Target: T2, human calcitonin receptor
Experiment: cell-based or functional assay

| Binder | Ratio hCT/hAmylin funct. (hCTR EC50 against hAmylin-R EC50) | hCTR funct. EC50 |
| --- | --- | --- |
| B1 | 6.4 | 0.717 nM |
| B2 | 16.7 | 4.35 nM |
| B3 |  | 1.68 nM |
| B4 | 6.5 | 0.92 nM |
| B5 | 46.2 | 10 nM |
| B6 | 29.9 | 6.34 nM |
